The experiment concerns the target Leminorella grimontii GatC (Leminorella grimontii). As to the kind of experiment: crystal structure.

This note sets out measurements from doi:10.1101/2025.04.02.646771.

The term stoichiometry N denotes a count of units in the complex or per binding partner.

“Leminorella grimontii GatC (natural protein)”: the stoichiometry N came out at 2.
